From the supplement of paper PMC9732359
± gives the uncertainty stated by the source.

Test: protein stability index of a GFP-peptide fusion (yeast GPS) (PSI 1-4); higher = more stable; sorted into four equal gates, so the index is relative within each strain
Method in brief: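 Yeast carrying a pooled library were grown to mid-log phase in leucine-free medium. Each library plasmid expresses Cherry and has a tiled 17-residue yeast protein peptide fused downstream of GFP. Cells were sorted into four equal gates by GFP/Cherry ratio, and plasmids from each gate were PCR-amplified, Illumina-sequenced and assigned to strains by barcode. Summing, across gates, the read frequency times the gate number gave each peptide's protein stability index.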

Sequence	protein stability index (doa10∆)	protein stability index (pdr5∆)	protein stability index (san1∆)	protein stability index (ubr1∆)
ITATLVGTVRCEEEKKT [CSL4]	1.54 ± 0.14	1.9 ± 0.25	1.67 ± 0.16	1.58 ± 0.079
QIRDVMERFSVLCNSNI [RRP6]	2.41 ± 0.11	2.82 ± 0.11	2.18 ± 0.15	2.38 ± 0.084
TMYMEVYTAIYNYCVNK [CDC53]	1.63 ± 0.047	1.55 ± 0.047	1.51 ± 0.061	1.7 ± 0.031
SFILYYRRALQSSESFD [YML103C/NUP188]	1.79 ± 0.055	2.11 ± 0.067	1.98 ± 0.072	2.27 ± 0.052
IKELEHLHDAVFVNTGL [SWP82]	2.94 ± 0.067	2.9 ± 0.058	3.06 ± 0.059	2.91 ± 0.05
KNKKIEVYTKTIEVLDE [POP7]	2.12 ± 0.11	2.78 ± 0.11	2.45 ± 0.15	2.61 ± 0.14
QQRIVSAYEASMVYSNV [RRP4]	2.32 ± 0.062	2.62 ± 0.05	2.62 ± 0.045	2.33 ± 0.046
RASKLKIQASDVNIIGK [RPO31]	–	3.04 ± 0.17	2.7 ± 0.24	–
NFPVRQWSIEIVLLDDE [TAF14]	1.57 ± 0.07	1.5 ± 0.055	2.37 ± 0.093	2.19 ± 0.059
INESAENFSNGISLVME [MED1]	3.35 ± 0.11	3.16 ± 0.07	3.07 ± 0.055	3.1 ± 0.045
RKFKSRRCDDMLYYIQN [POP4]	2.74 ± 0.069	2.98 ± 0.088	2.81 ± 0.062	2.85 ± 0.048
NIRGNTIRQIILPDSLN [SMD1]	2.87 ± 0.15	2.94 ± 0.12	2.76 ± 0.16	3.27 ± 0.099
VLSPDSNIMSDSKKIKV [GAL11]	2.03 ± 0.13	2.42 ± 0.095	2.44 ± 0.12	2.21 ± 0.12
NYIENMNEMCKKINAKE [RPN8]	2.84 ± 0.045	3.07 ± 0.059	3.12 ± 0.043	3 ± 0.039
LQHELMISIIKLVTNVV [YML103C/NUP188]	1.54 ± 0.071	1.8 ± 0.048	1.56 ± 0.18	1.57 ± 0.038
EVAQYLQEIYQTDAIKS [RPN5]	2.3 ± 0.084	2.44 ± 0.099	2.47 ± 0.1	2.29 ± 0.13
LKEVPTYRYVSVSVLVD [RPS25A]	2.64 ± 0.079	2.13 ± 0.069	1.33 ± 0.1	1.66 ± 0.038
LQAQLDYLNAELGEFFV [FAS2]	3.06 ± 0.18	–	2.94 ± 0.17	3.18 ± 0.16
LAPARVRRRFARGMTSK [RPS15]	2.99 ± 0.1	3.17 ± 0.094	3.11 ± 0.096	3.03 ± 0.082
KARSPGIAKPNAIQTEV [SIR4]	3.36 ± 0.067	3.35 ± 0.092	3.18 ± 0.075	3.22 ± 0.066
SDERAKLELINRYAYVL [LRP1]	2.55 ± 0.067	3.17 ± 0.16	2.79 ± 0.11	2.93 ± 0.15
LPQCIIPSSYIKRTDEG [ARP7]	2.77 ± 0.1	2.59 ± 0.068	2.13 ± 0.099	2.49 ± 0.065
VVKASELDQFWQEYSSV [SRP14]	3.04 ± 0.061	2.9 ± 0.071	3.14 ± 0.072	3.27 ± 0.048
IIVKILYYRPHINKKSQ [GRR1]	1.66 ± 0.096	2.63 ± 0.11	1.23 ± 0.18	2.51 ± 0.11
TAASVFKELCYENKDNL [PRE3]	2.67 ± 0.051	2.45 ± 0.047	2.38 ± 0.058	2.17 ± 0.054
TGLNGSGKSNILDAICF [SMC2]	3.4 ± 0.12	2.98 ± 0.093	3.28 ± 0.063	3.31 ± 0.054
QYYVTQHDKMVDKIFEK [SWI1]	2.96 ± 0.1	2.42 ± 0.06	2.68 ± 0.068	2.84 ± 0.034
